Publication PMC8730436

Tested on: RplI (ribosomal large subunit protein L9) (Pseudomonas aeruginosa mPAO1)
Experiment: MST

Substance: -24 nt-exsA RNA
- Kd: 529 nM
